Test results reported in paper doi:10.1101/2024.11.06.622200.

Target: purified recombinant myristoylated HIV-1 matrix protein (myrMA) (HIV-1 NL4-3)

Substance: HIV-1 spacer peptide 2 (SP2), added in vitro
- share of sub-images contributing to mature-like MA lattice classes on lipid monolayers, with SP2 (7% mature-like and 7% immature-like without SP2): 47%
